Laboratory results taken from publication PMC7275066.

Target: HPV52L1-C428A (human papillomavirus type 52 (HPV52))
Assay: SEC; HPSEC on TSK Gel G 5000 pwxl, 10 mM PB pH 6.5, 0.5 M NaCl; serial molar ratios of C175A and C428A mutants; chVLP fraction analysed by SDS-PAGE and western blotting; pentamers to VLP

Substance: HPV16L1-C175A (domain or fragment)
- stoichiometry N (C175A:C428A molar ratio): 1
